Laboratory results reported in the supplement of paper PMC10567573.

B1: PPEF2 (parent)
chain: FIPSSHNDRDFLTRIFTEDRFAQD
B2: ETS2 (parent)
chain: TSGKRYVYRFVCDLQNLLGFTPEE

Variants of: B1
Test: protein stability index of a GFP-peptide fusion (GPS, HEK-293T) (PSI 1-6); higher = more stable
Details: c terminus: a fixed tail appended
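Also: lentivirally expressed fusions sorted by FACS into six bins by GFP to DsRed ratio, PSI derived from sequencing read proportions per bin multiplied by bin number.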

Compared with FIPSSHNDRDFLTRIFTEDRWAQD, FIPSSHNDRDFLTRIFTEDRNAQD is higher in protein stability index: 2.09 for the first, 2.54 for the second.

First: FIPSSHNDRDFLTRIFTEDRSAQD
Second: FIPSSHNDRDFLTRIFTEDRMAQD
The protein stability index of the first is lower: 1.65 for the first, 1.87 for the second.

Compared with FIPSSHNDRDFLTRIFTEDRVAQD, FIPSSHNDRDFLTRIFTEDRKAQD is higher in protein stability index: 1.64 for the first, 1.84 for the second.

Compared with FIPSSHNDRDFLTRIFTEDRQAQD, FIPSSHNDRDFLTRIFTEDRCAQD is lower in protein stability index: 1.98 for the first, 1.81 for the second.

Going from FIPSSHNDRDFLTRIFTEDRPAQD to FIPSSHNDRDFLTRIFTEDREAQD, the protein stability index falls from 2.02 to 1.81.

Compared with FIPSSHNDRDFLTRIFTEDRYAQD, FIPSSHNDRDFLTRIFTEDRIAQD is lower in protein stability index: 2.27 for the first, 1.74 for the second.

FIPSSHNDRDFLTRIFTEDRRAQD and FIPSSHNDRDFLTRIFTEDRTAQD are the same in protein stability index: 1.75 for the first, 1.75 for the second.

Going from FIPSSHNDRDFLTRIFTEDRAAQD to FIPSSHNDRDFLTRIFTEDRHAQD, the protein stability index rises from 1.59 to 1.87.

Compared with FIPSSHNDRDFLTRIFTEDRGAQD, FIPSSHNDRDFLTRIFTEDRLAQD is higher in protein stability index: 1.92 for the first, 2.27 for the second.

Compared with FIPSSHNDRDFLTRIFTEDRDAQD, FIPSSHNDRDFLTRIFTEDRFPQD is lower in protein stability index: 2.52 for the first, 1.95 for the second.

Compared with FIPSSHNDRDFLTRIFTEDRFDQD, FIPSSHNDRDFLTRIFTEDRFNQD is higher in protein stability index: 2.56 for the first, 2.59 for the second.

Compared with FIPSSHNDRDFLTRIFTEDRFMQD, FIPSSHNDRDFLTRIFTEDRFWQD is higher in protein stability index: 1.8 for the first, 3.33 for the second.

First: FIPSSHNDRDFLTRIFTEDRFLQD
Second: FIPSSHNDRDFLTRIFTEDRFHQD
The protein stability index of the first is higher: 2 for the first, 1.83 for the second.

Compared with FIPSSHNDRDFLTRIFTEDRFGQD, FIPSSHNDRDFLTRIFTEDRFIQD is lower in protein stability index: 1.89 for the first, 1.78 for the second.

First: FIPSSHNDRDFLTRIFTEDRFRQD
Second: FIPSSHNDRDFLTRIFTEDRFYQD
The protein stability index of the first is higher: 2.16 for the first, 1.61 for the second.

First: FIPSSHNDRDFLTRIFTEDRFKQD
Second: FIPSSHNDRDFLTRIFTEDRFTQD
The protein stability index of the first is higher: 3.16 for the first, 1.93 for the second.

Going from FIPSSHNDRDFLTRIFTEDRFFQD to FIPSSHNDRDFLTRIFTEDRFCQD, the protein stability index falls from 2.07 to 1.95.

Going from FIPSSHNDRDFLTRIFTEDRFEQD to FIPSSHNDRDFLTRIFTEDRFSQD, the protein stability index falls from 2.2 to 1.63.

Going from FIPSSHNDRDFLTRIFTEDRFQQD to FIPSSHNDRDFLTRIFTEDRFVQD, the protein stability index rises from 2.15 to 2.56.

Compared with FIPSSHNDRDFLTRIFTEDRFAQK, FIPSSHNDRDFLTRIFTEDRFAQG is higher in protein stability index: 1.99 for the first, 2.13 for the second.

Going from FIPSSHNDRDFLTRIFTEDRFAQS to FIPSSHNDRDFLTRIFTEDRFAQN, the protein stability index falls from 2.93 to 1.62.

First: FIPSSHNDRDFLTRIFTEDRFAQR
Second: FIPSSHNDRDFLTRIFTEDRFAQL
The protein stability index of the first is lower: 2.19 for the first, 2.2 for the second.

Going from FIPSSHNDRDFLTRIFTEDRFAQQ to FIPSSHNDRDFLTRIFTEDRFAQV, the protein stability index rises from 1.27 to 2.79.

Compared with FIPSSHNDRDFLTRIFTEDRFAQM, FIPSSHNDRDFLTRIFTEDRFAQT is lower in protein stability index: 1.94 for the first, 1.52 for the second.

Going from FIPSSHNDRDFLTRIFTEDRFAQP to FIPSSHNDRDFLTRIFTEDRFAQW, the protein stability index rises from 1.73 to 2.63.

First: FIPSSHNDRDFLTRIFTEDRFAQE
Second: FIPSSHNDRDFLTRIFTEDRFAQY
The protein stability index of the first is higher: 1.95 for the first, 1.9 for the second.

First: FIPSSHNDRDFLTRIFTEDRFAQA
Second: FIPSSHNDRDFLTRIFTEDRFAQI
The protein stability index of the first is lower: 2.61 for the first, 2.99 for the second.

Compared with FIPSSHNDRDFLTRIFTEDRFAQH, FIPSSHNDRDFLTRIFTEDRFAQF is lower in protein stability index: 3.06 for the first, 2.83 for the second.

Compared with FIPSSHNDRDFLTRIFTEDRFAQC, FIPSSHNDRDFLTRIFTEDRFAAD is higher in protein stability index: 1.75 for the first, 1.96 for the second.

First: FIPSSHNDRDFLTRIFTEDRFATD
Second: FIPSSHNDRDFLTRIFTEDRFAWD
The protein stability index of the first is higher: 3.01 for the first, 2.55 for the second.

Compared with FIPSSHNDRDFLTRIFTEDRFAKD, FIPSSHNDRDFLTRIFTEDRFAND is higher in protein stability index: 2.33 for the first, 2.68 for the second.

First: FIPSSHNDRDFLTRIFTEDRFAYD
Second: FIPSSHNDRDFLTRIFTEDRFACD
The protein stability index of the first is higher: 2.84 for the first, 2.27 for the second.

First: FIPSSHNDRDFLTRIFTEDRFALD
Second: FIPSSHNDRDFLTRIFTEDRFASD
The protein stability index of the first is lower: 2.06 for the first, 2.35 for the second.

Compared with FIPSSHNDRDFLTRIFTEDRFAHD, FIPSSHNDRDFLTRIFTEDRFAMD is lower in protein stability index: 2.18 for the first, 2.09 for the second.

Going from FIPSSHNDRDFLTRIFTEDRFAID to FIPSSHNDRDFLTRIFTEDRFAFD, the protein stability index rises from 1.99 to 2.44.

First: FIPSSHNDRDFLTRIFTEDRFADD
Second: FIPSSHNDRDFLTRIFTEDRFAVD
The protein stability index of the first is lower: 1.72 for the first, 2.15 for the second.

Compared with FIPSSHNDRDFLTRIFTEDRFARD, FIPSSHNDRDFLTRIFTEDRFAED is lower in protein stability index: 3.08 for the first, 2.06 for the second.

Going from FIPSSHNDRDFLTRIFTEDRFAGD to FIPSSHNDRDFLTRIFTEDRFAPD, the protein stability index rises from 1.89 to 3.1.

Variants of: B2
Test: as above
Details: c terminus: a fixed tail appended

Compared with TSFKRYVYRFVCDLQNLLGFTPEE, TSSKRYVYRFVCDLQNLLGFTPEE is higher in protein stability index: 2.33 for the first, 2.36 for the second.

First: TSNKRYVYRFVCDLQNLLGFTPEE
Second: TSCKRYVYRFVCDLQNLLGFTPEE
The protein stability index of the first is higher: 2.77 for the first, 1.81 for the second.

Compared with TSVKRYVYRFVCDLQNLLGFTPEE, TSHKRYVYRFVCDLQNLLGFTPEE is higher in protein stability index: 1.86 for the first, 2.83 for the second.

First: TSPKRYVYRFVCDLQNLLGFTPEE
Second: TSEKRYVYRFVCDLQNLLGFTPEE
The protein stability index of the first is lower: 1.5 for the first, 1.78 for the second.

Going from TSQKRYVYRFVCDLQNLLGFTPEE to TSWKRYVYRFVCDLQNLLGFTPEE, the protein stability index falls from 2.31 to 1.65.

Compared with TSKKRYVYRFVCDLQNLLGFTPEE, TSAKRYVYRFVCDLQNLLGFTPEE is higher in protein stability index: 1.7 for the first, 2.96 for the second.

First: TSTKRYVYRFVCDLQNLLGFTPEE
Second: TSIKRYVYRFVCDLQNLLGFTPEE
The protein stability index of the first is lower: 1.86 for the first, 2.11 for the second.

Compared with TSLKRYVYRFVCDLQNLLGFTPEE, TSRKRYVYRFVCDLQNLLGFTPEE is higher in protein stability index: 1.65 for the first, 2 for the second.

Going from TSDKRYVYRFVCDLQNLLGFTPEE to TSMKRYVYRFVCDLQNLLGFTPEE, the protein stability index falls from 3.19 to 2.08.
